The source of these data is patent US20040018971A1 (published 2004).

Assay [1] has as its target HLA-B*0702 (human). Description: competition with 125I-labelled probe peptide for purified HLA, gel filtration.
Assay [2] addresses T1, HLA-B*0702 (human).
T1 construct: also called B7 supertype prototype molecule
Description: inhibition of 125I standard peptide binding to purified HLA.

On to CPLHNQEVTA [HER2/neu peptide, position 315, 10 amino acids], for which the relative binding ratio with HLA-B*0702 [1] was 0.0001 ratio (IC50 of standard / IC50 of test peptide).
The same measure, in the same setting: the result for CPYNYLSTDV [HER2/neu peptide, position 299, 10 amino acids] reads 0.0016 ratio (IC50 of standard / IC50 of test peptide).
Still for that read-out and setting: next, HPPPAFSPA [HER2/neu peptide, position 1208, 9 amino acids]: 0.0093 ratio (IC50 of standard / IC50 of test peptide); CPINCTHSCV [HER2/neu peptide, position 626, 10 amino acids]: 0.0002 ratio (IC50 of standard / IC50 of test peptide); EPLTPSGAM [HER2/neu peptide, position 698, 9 amino acids]: 0.011 ratio (IC50 of standard / IC50 of test peptide).
The same measure, in the same setting: the result for CPDPAPGA [HER2/neu peptide, position 1032, 8 amino acids] reads < 0.0002 ratio (IC50 of standard / IC50 of test peptide).
As for WPDSLPDLSV (also called Her2/neu.415) [HER2/neu peptide, position 415, 10 amino acids], in the assay with HLA-B*0702 [2], the relative binding ratio was 0.0044 ratio to standard peptide.
Take IPDGENVKIPV [HER2/neu peptide, position 740, 11 amino acids]: in the assay with HLA-B*0702 [1], the relative binding ratio is 0.0023 ratio (IC50 of standard / IC50 of test peptide).
On the same count and under the same terms, the result for GPLPAARPA [HER2/neu peptide, position 1155, 9 amino acids] reads 0.09 ratio (IC50 of standard / IC50 of test peptide).
As to GPEADQCVA [HER2/neu peptide, position 578, 9 amino acids], in the assay with HLA-B*0702 [1], the relative binding ratio was 0.0001 ratio (IC50 of standard / IC50 of test peptide).
The same measure, in the same setting: next, GPTQCVNCSQF [HER2/neu peptide, position 524, 11 amino acids]: 0.0005 ratio (IC50 of standard / IC50 of test peptide).
Still for that read-out and setting: next, CPSGVKPDL [HER2/neu peptide, position 600, 9 amino acids]: 0.014 ratio (IC50 of standard / IC50 of test peptide); DPAPGAGGMV [HER2/neu peptide, position 1034, 10 amino acids]: 0.0002 ratio (IC50 of standard / IC50 of test peptide).
On the same count and under the same terms, next, LPTNASLSFL (also called Her2/neu.65) [HER2/neu peptide, position 65, 10 amino acids]: 0.019 ratio (IC50 of standard / IC50 of test peptide); DPQRFVVI [HER2/neu peptide, position 982, 8 amino acids]: < 0.0006 ratio (IC50 of standard / IC50 of test peptide); CPLHNQEV [HER2/neu peptide, position 315, 8 amino acids]: < 0.0006 ratio (IC50 of standard / IC50 of test peptide).
On to APSEGAGSDVF [HER2/neu peptide, position 1076, 11 amino acids], for which, in the assay with HLA-B*0702 [1], the relative binding ratio is 0.0006 ratio (IC50 of standard / IC50 of test peptide).
Same read-out and setting: next, LPASPETHL [HER2/neu peptide, position 35, 9 amino acids]: 0.0002 ratio (IC50 of standard / IC50 of test peptide); LPSETDGYV [HER2/neu peptide, position 1120, 9 amino acids]: 0.0002 ratio (IC50 of standard / IC50 of test peptide); APQPHPPPA [HER2/neu peptide, position 1204, 9 amino acids]: 0.0056 ratio (IC50 of standard / IC50 of test peptide).
Still for that read-out and setting: next, LPSETDGY [HER2/neu peptide, position 1120, 8 amino acids]: < 0.0006 ratio (IC50 of standard / IC50 of test peptide); GPGPTQCV [HER2/neu peptide, position 522, 8 amino acids]: < 0.0006 ratio (IC50 of standard / IC50 of test peptide).
WPDSLPDL (also called Her2/neu.415) [HER2/neu peptide, position 415, 8 amino acids]: in the assay with HLA-B*0702 [2], the relative binding ratio was 0.02 ratio to standard peptide.
For the molecule APLTCSPQPEY [HER2/neu peptide, position 1129, 11 amino acids], the relative binding ratio with HLA-B*0702 [1] was < 0.0002 ratio (IC50 of standard / IC50 of test peptide).
Still for that read-out and setting: the result for IPVAIKVL [HER2/neu peptide, position 748, 8 amino acids] reads 0.012 ratio (IC50 of standard / IC50 of test peptide); that for DPLNNTTPV [HER2/neu peptide, position 121, 9 amino acids], 0.0002 ratio (IC50 of standard / IC50 of test peptide); that for LPTHDPSPL [HER2/neu peptide, position 1101, 9 amino acids], 0.046 ratio (IC50 of standard / IC50 of test peptide).
The same measure, in the same setting: the result for GPKHSDCL [HER2/neu peptide, position 246, 8 amino acids] reads 0.0092 ratio (IC50 of standard / IC50 of test peptide); that for LPESFDGDPA [HER2/neu peptide, position 377, 10 amino acids], 0.0001 ratio (IC50 of standard / IC50 of test peptide).
Still for that read-out and setting: next, IPAREIPDL [HER2/neu peptide, position 926, 9 amino acids]: 0.0006 ratio (IC50 of standard / IC50 of test peptide); GPLPAARPAGA [HER2/neu peptide, position 1155, 11 amino acids]: 0.016 ratio (IC50 of standard / IC50 of test peptide).
KPYDGIPAREI [HER2/neu peptide, position 921, 11 amino acids]: the relative binding ratio with HLA-B*0702 [1] was 0.043 ratio (IC50 of standard / IC50 of test peptide).
On the same count and under the same terms, next, GPEADQCV [HER2/neu peptide, position 578, 8 amino acids]: < 0.0006 ratio (IC50 of standard / IC50 of test peptide); CPSGVKPDLSY (also called Her2/neu.600) [HER2/neu peptide, position 600, 11 amino acids]: 0.03 ratio (IC50 of standard / IC50 of test peptide).
The same measure, in the same setting: the result for LPPGAASTQV [HER2/neu peptide, position 16, 10 amino acids] reads 0.0002 ratio (IC50 of standard / IC50 of test peptide); that for EPLTPSGA [HER2/neu peptide, position 698, 8 amino acids], < 0.0002 ratio (IC50 of standard / IC50 of test peptide).
On the same count and under the same terms, the result for APSEGAGSDV [HER2/neu peptide, position 1076, 10 amino acids] reads 0.0002 ratio (IC50 of standard / IC50 of test peptide).
On to GPASPLDSTFY [HER2/neu peptide, position 995, 11 amino acids], for which the relative binding ratio with HLA-B*0702 [1] is 0.0036 ratio (IC50 of standard / IC50 of test peptide).
The same measure, in the same setting: next, LPTDCCHEQCA [HER2/neu peptide, position 231, 11 amino acids]: < 0.0003 ratio (IC50 of standard / IC50 of test peptide); CPDPAPGAGGM [HER2/neu peptide, position 1032, 11 amino acids]: < 0.0002 ratio (IC50 of standard / IC50 of test peptide).
In the case of KPCARVCYGL (also called Her2/neu.336) [HER2/neu peptide, position 336, 10 amino acids], the relative binding ratio with HLA-B*0702 [1] is 0.037 ratio (IC50 of standard / IC50 of test peptide).
Still for that read-out and setting: next, DPASNTAPL [HER2/neu peptide, position 384, 9 amino acids]: 0.0004 ratio (IC50 of standard / IC50 of test peptide).
Still for that read-out and setting: next, GPASPLDSTF [HER2/neu peptide, position 995, 10 amino acids]: 0.051 ratio (IC50 of standard / IC50 of test peptide); LPASPETHLDM [HER2/neu peptide, position 35, 11 amino acids]: < 0.0002 ratio (IC50 of standard / IC50 of test peptide); IPDGENVKI [HER2/neu peptide, position 740, 9 amino acids]: 0.0001 ratio (IC50 of standard / IC50 of test peptide).
Same read-out and setting: next, CPAEQRASPL (also called Her2/neu.642) [HER2/neu peptide, position 642, 10 amino acids]: 0.15 ratio (IC50 of standard / IC50 of test peptide); GPEADQCVACA [HER2/neu peptide, position 578, 11 amino acids]: < 0.0003 ratio (IC50 of standard / IC50 of test peptide).
With IPAREIPDLL [HER2/neu peptide, position 926, 10 amino acids], the relative binding ratio with HLA-B*0702 [1] is 0.0004 ratio (IC50 of standard / IC50 of test peptide).
On to DPSPLQRY [HER2/neu peptide, position 1105, 8 amino acids], for which, in the assay with HLA-B*0702 [1], the relative binding ratio was < 0.0006 ratio (IC50 of standard / IC50 of test peptide).
Same read-out and setting: the result for LPAARPAGATL [HER2/neu peptide, position 1157, 11 amino acids] reads 0.014 ratio (IC50 of standard / IC50 of test peptide).
On the same count and under the same terms, next, APQPHPPPAF [HER2/neu peptide, position 1204, 10 amino acids]: 0.053 ratio (IC50 of standard / IC50 of test peptide); LPAARPAGA [HER2/neu peptide, position 1157, 9 amino acids]: 0.0027 ratio (IC50 of standard / IC50 of test peptide); HPPPAFSPAF [HER2/neu peptide, position 1208, 10 amino acids]: 0.0018 ratio (IC50 of standard / IC50 of test peptide).
KPCARVCY [HER2/neu peptide, position 336, 8 amino acids]: in the assay with HLA-B*0702 [1], the relative binding ratio was < 0.0006 ratio (IC50 of standard / IC50 of test peptide).
Same read-out and setting: the result for DPAPGAGGM [HER2/neu peptide, position 1034, 9 amino acids] reads 0.0001 ratio (IC50 of standard / IC50 of test peptide).
The same measure, in the same setting: next, LPSETDGYVA [HER2/neu peptide, position 1120, 10 amino acids]: 0.0001 ratio (IC50 of standard / IC50 of test peptide); APGAGGMV [HER2/neu peptide, position 1036, 8 amino acids]: 0.0063 ratio (IC50 of standard / IC50 of test peptide); GPKHSDCLACL [HER2/neu peptide, position 246, 11 amino acids]: 0.0006 ratio (IC50 of standard / IC50 of test peptide).
Take VPLQRLRIV (also called Her2/neu.94) [HER2/neu peptide, position 94, 9 amino acids]: the relative binding ratio with HLA-B*0702 [2] was 0.0077 ratio to standard peptide.
Consider APLQPEQLQVF [HER2/neu peptide, position 390, 11 amino acids], for which the relative binding ratio with HLA-B*0702 [1] was 0.0011 ratio (IC50 of standard / IC50 of test peptide).
With LPREYVNA [HER2/neu peptide, position 550, 8 amino acids], in the assay with HLA-B*0702 [1], the relative binding ratio is 0.0012 ratio (IC50 of standard / IC50 of test peptide).
Same read-out and setting: the result for KPDLSYMPI (also called Her2/neu.605) [HER2/neu peptide, position 605, 9 amino acids] reads 0.072 ratio (IC50 of standard / IC50 of test peptide).
As for LPDLSVFQNL [HER2/neu peptide, position 419, 10 amino acids], the relative binding ratio with HLA-B*0702 [1] was 0.0003 ratio (IC50 of standard / IC50 of test peptide).
On the same count and under the same terms, the result for IPDLLEKGERL [HER2/neu peptide, position 931, 11 amino acids] reads < 0.0002 ratio (IC50 of standard / IC50 of test peptide); that for HPECQPQNGSV [HER2/neu peptide, position 564, 11 amino acids], < 0.0002 ratio (IC50 of standard / IC50 of test peptide).
Regarding APLQPEQLQV [HER2/neu peptide, position 390, 10 amino acids], the relative binding ratio with HLA-B*0702 [1] is 0.0001 ratio (IC50 of standard / IC50 of test peptide).
The same measure, in the same setting: next, APLQPEQL [HER2/neu peptide, position 390, 8 amino acids]: < 0.0006 ratio (IC50 of standard / IC50 of test peptide); KPDLSYMPIW [HER2/neu peptide, position 605, 10 amino acids]: 0.0001 ratio (IC50 of standard / IC50 of test peptide).
